Experimental data taken from article PMC8241838, “Structural mechanism of laminin recognition by integrin” (Nature Communications, 2021).

Columns and labels:
[1] = target: α6β1 integrin on Expi293F cells, α6 R157A (human, UniProt P05556 21-798, Mn2+; A cytoplasmic form assumed); test: flow cytometry on cells; Expi293F cells transiently expressing α6 (wild type or mutant) with β1, in HBS-BSA with 0.5 mM MnCl2, varying concentrations of sfGFP-tLM511, room temperature 2 h, no washing; non-transfected cells as baseline; conditions: one partner purified
[2] = target: α6β1 integrin on Expi293F cells, α6 D153A (human, UniProt P05556 21-798, Mn2+; A cytoplasmic form assumed); test: as above; conditions: one partner purified
Chain of α6β1 integrin on Expi293F cells, α6 D153A (chain, as listed by the source D153A, chain 1 of 2): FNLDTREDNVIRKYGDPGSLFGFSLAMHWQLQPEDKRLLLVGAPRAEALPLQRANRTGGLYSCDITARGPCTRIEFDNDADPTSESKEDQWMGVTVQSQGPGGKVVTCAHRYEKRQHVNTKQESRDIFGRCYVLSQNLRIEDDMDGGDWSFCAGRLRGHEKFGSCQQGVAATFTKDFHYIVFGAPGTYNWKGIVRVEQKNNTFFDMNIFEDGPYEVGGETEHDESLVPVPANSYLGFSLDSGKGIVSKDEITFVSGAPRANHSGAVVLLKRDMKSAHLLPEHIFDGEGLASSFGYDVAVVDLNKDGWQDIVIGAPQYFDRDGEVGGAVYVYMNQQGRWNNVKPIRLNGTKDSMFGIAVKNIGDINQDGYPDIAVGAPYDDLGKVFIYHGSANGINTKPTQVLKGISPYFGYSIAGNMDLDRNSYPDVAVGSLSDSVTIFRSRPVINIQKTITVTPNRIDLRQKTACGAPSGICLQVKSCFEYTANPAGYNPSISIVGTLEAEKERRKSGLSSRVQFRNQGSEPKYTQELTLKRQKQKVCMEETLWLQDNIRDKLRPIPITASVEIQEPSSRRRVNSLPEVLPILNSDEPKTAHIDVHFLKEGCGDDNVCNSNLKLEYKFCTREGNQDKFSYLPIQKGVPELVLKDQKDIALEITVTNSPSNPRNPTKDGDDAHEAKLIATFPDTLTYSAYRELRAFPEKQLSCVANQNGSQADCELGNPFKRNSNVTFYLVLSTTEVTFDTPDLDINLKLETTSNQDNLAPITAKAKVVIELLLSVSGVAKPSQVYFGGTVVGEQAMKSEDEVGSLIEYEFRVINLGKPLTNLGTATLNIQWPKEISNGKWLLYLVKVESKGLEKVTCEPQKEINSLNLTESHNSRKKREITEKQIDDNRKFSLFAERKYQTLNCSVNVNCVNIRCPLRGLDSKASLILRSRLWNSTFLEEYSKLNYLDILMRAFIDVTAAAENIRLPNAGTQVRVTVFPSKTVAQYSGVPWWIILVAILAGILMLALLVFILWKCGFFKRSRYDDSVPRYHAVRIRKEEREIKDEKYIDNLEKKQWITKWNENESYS
Chain of α6β1 integrin on Expi293F cells, α6 D153A (P05556 21-798, chain 2 of 2): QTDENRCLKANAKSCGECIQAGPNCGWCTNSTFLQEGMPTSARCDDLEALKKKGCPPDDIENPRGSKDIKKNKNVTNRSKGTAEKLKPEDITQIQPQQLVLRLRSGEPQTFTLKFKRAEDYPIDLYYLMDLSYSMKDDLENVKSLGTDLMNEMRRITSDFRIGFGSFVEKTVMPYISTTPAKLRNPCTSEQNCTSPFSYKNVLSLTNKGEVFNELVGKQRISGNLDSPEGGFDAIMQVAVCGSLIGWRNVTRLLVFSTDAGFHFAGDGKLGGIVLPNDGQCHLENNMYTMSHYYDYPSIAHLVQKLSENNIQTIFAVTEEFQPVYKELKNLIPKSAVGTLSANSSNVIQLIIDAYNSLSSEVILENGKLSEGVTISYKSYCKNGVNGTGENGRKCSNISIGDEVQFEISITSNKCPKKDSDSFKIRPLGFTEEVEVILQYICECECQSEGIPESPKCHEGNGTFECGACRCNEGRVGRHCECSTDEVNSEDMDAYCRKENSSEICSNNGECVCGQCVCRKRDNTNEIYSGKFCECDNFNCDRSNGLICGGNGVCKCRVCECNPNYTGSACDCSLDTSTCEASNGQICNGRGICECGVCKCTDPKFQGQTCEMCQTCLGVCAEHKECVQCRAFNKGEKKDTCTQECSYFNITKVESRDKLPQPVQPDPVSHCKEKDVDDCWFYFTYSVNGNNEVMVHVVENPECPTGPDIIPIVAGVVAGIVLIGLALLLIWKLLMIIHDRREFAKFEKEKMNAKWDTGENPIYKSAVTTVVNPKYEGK

Chain of α6β1 integrin on Expi293F cells, α6 R157A (chain, as listed by the source R157A, chain 1 of 2): as the sequence (chain, as listed by the source D153A, chain 1 of 2) above, with A153D, R157A counted along it
Chain of α6β1 integrin on Expi293F cells, α6 R157A (P05556 21-798, chain 2 of 2): as the sequence (P05556 21-798, chain 2 of 2) above

B1: trimeric fusion protein PA-sfGFP-tLM511 (complex)
chain 1: ENVERWQGQYEGLRGQDLGQAVLDAGHSVSTLEKTLPQLLAKLSILENRGVHNASLALSASIGRVRELIAQARGAASKVKVPMKFNGRSGVQLRTPRDLADLAAYTALKFYLQGPEPEPGQGTEDRFVMYMGSRQATGDYMGVSLRDKKVHWVYQLGEAGPAVLSIDEDIGEQFAAVSLDRTLQFGHMSVTVERQMIQETKGDTVAPGAEGLLNLRPDDFVFYVGGYPSTFTPPPLLRFPGYRGCIEMDTLNEEVVSLYNFERTFQLDTAVDRPCARSKSTGDPWLTDGSYLDGTGFARISFDSQISTTKRFEQELRLVSYSGVLFFLKQQSQFLCLAVQEGSLVLLYDFGAGLKKAVPLQPPPPLTSASKAIQVFLLGGSRKRVLVRVERATVYSVEQDNDLELADAYYLGGVPPDQLPPSLRRLFPTGGSVRGCVKGIKALGKYVDLKRLNTTGVSAGCTADLLVGRAMTFHGHGFLRLALSNVAPLTGNVYSGFGFHSAQDSALLYYRASPDGLCQVSLQQGRVSLQLLRTEVKTQAGFADGAPHYVAFYSNATGVWLYVDDQLQQMKPHRGPPPELQPQPEGPPRLLLGGLPESGTIYNFSGCISNVFVQRLLGPQRVFDLQQNLGSVNVSTGCAPALQAQTPGLGPRGLQATARKASRRSRQPARHPA
chain 2: not shown
chain 3: DTVDLNKLNEIEGTLNKAKDEMKVSDLDRKVSDLENEAKKQEAAIMDYNRDIEEIMKDIRNLEDIRKTLPSGCFNTPSIEKP
notes: laminin α5 chain (tLMα5), human, residues E2655-A3327, numbered from the initiation Met; sfGFP inserted between the PA tag and tLMα5; laminin β1 chain (tLMβ1), human, residues D1714-L1786, numbered from the initiation Met; laminin γ1 chain (tLMγ1), human, residues D1528-P1609, numbered from the initiation Met; sfGFP gene: GenBank ASL68970.1; also called sfGFP-fused tLM511; fluorescent tLM511 …
For B1, the “fold increase in KD over the wild type” value [1] was 2.3 fold and the “fold increase in KD over the wild type” value [2] was 3.6 fold.
